Reference: article PMC7305236 (Nature Communications, 2020)
No end group written: not given here.

Legend:
[1] = target: T1, atypical chemokine receptor ACKR3 (formerly CXCR7) (human, UniProt P25106 1-362); experiment: flow cytometry on cells
[2] = target: mouse ACKR3 (mouse, UniProt P56485 1-362); experiment: cell-based or functional assay
[3] = target: T1, atypical chemokine receptor ACKR3 …; experiment: cell-based or functional assay
[4] = target: T1, atypical chemokine receptor ACKR3 …; experiment: cell-based or functional assay; remark: listed apart in the source
[5] = target: mu opioid receptor (MOR) (human, UniProt P35372 1-400); experiment: cell-based or functional assay
[6] = target: delta opioid receptor (DOR) (human, UniProt P41143 1-372); experiment: cell-based or functional assay
[7] = target: kappa opioid receptor (KOR) (human, UniProt P41145 1-380); experiment: cell-based or functional assay
[8] = target: ACKR3 C-terminally tagged with SmBiT (human, UniProt P25106 1-362); experiment: cell-based or functional assay
[9] = target: T1, atypical chemokine receptor ACKR3 …; experiment: flow cytometry on cells; remark: listed apart in the source

T1 sequence (P25106 whole entry): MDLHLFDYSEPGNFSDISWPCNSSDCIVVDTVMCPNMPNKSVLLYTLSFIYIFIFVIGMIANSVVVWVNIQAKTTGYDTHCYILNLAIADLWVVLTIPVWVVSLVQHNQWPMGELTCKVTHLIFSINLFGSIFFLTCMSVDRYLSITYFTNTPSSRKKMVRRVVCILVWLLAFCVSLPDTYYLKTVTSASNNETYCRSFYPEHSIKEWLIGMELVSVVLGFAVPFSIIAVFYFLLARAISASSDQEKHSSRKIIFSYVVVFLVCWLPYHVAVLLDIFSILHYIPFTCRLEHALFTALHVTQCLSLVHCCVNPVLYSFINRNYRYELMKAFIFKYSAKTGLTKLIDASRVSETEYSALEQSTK
Chain of kappa opioid receptor (KOR) (P41145 whole entry): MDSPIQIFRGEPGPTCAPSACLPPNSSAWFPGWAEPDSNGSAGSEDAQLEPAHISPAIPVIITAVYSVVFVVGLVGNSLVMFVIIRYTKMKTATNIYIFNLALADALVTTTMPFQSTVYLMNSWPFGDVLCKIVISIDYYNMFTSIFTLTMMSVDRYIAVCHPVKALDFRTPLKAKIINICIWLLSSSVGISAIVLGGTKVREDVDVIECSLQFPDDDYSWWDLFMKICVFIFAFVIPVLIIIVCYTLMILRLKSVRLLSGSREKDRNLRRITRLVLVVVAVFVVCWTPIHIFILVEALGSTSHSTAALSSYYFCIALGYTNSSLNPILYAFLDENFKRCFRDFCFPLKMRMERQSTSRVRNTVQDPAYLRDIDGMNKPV
Chain of mouse ACKR3 (P56485 whole entry): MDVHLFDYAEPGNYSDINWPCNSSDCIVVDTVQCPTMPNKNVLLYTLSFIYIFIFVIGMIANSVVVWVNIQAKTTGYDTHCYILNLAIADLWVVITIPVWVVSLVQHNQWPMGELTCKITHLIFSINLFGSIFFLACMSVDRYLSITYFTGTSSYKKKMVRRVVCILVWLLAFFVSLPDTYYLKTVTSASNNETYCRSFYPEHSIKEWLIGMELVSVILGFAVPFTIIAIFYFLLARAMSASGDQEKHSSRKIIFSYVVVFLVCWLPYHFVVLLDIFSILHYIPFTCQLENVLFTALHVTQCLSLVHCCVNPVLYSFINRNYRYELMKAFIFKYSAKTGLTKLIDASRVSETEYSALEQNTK
Chain of mu opioid receptor (MOR) (P35372 whole entry): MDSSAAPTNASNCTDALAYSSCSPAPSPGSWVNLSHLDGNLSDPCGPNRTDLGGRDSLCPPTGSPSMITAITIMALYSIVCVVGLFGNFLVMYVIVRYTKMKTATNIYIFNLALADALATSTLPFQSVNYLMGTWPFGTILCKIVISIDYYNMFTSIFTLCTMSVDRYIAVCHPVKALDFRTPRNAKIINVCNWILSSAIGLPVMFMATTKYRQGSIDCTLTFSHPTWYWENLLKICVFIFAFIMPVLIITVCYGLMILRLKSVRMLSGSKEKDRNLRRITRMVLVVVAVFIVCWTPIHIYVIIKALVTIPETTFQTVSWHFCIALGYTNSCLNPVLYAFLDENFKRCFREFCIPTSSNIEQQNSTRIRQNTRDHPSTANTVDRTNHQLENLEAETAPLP
Chain of ACKR3 C-terminally tagged with SmBiT (P25106 whole entry): as the sequence (P25106 whole entry) above
Chain of delta opioid receptor (DOR) (P41143 whole entry, stated change not applied): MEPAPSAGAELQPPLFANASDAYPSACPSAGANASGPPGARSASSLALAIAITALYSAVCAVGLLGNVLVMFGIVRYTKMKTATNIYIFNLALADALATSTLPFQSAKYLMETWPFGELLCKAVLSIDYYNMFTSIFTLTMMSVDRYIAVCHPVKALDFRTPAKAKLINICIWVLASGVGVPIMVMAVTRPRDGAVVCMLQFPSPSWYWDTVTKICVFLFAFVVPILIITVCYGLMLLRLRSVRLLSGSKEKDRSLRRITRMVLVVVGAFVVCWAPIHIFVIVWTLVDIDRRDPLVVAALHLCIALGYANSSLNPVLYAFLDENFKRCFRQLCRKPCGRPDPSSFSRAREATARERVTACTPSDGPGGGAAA

With GGFLRRIRPKLKWDNQ [Dynorphin A 2-17] the IC50 [1] was about 10000 nM.

FGGFMRRK-NH2 was tested, and the “Supplementary Table 6: EC50 of β-arrestin-1 recruitment to mACKR3, U87 cells” value [2] was 2.31 nM and the IC50 [1] was 4 nM.

For YPWF-NH2 [Endomorphin-1], the IC50 [1] was over 10000 nM.

For FGGFTGARKSARK-NH2 [Nociceptin 1-13-NH2], the “Supplementary Table 9: EC50 of β-arrestin-1 recruitment to ACKR3, CHO cells” value (from here on “Supplementary Table 9: EC50 … CHO cells”) [3] was about 10000 nM, the “Supplementary Table 9: EC50 of β-arrestin-1 recruitment to ACKR3, HEK cells” value (“Supplementary Table 9: EC50 … HEK cells” for short) [3] was about 10000 nM and the “Supplementary Table 9: EC50 of β-arrestin-2 recruitment to ACKR3, U87 cells” value (“Supplementary Table 9: EC50 … U87 cells” for short) [3] was about 10000 nM. For the same binder, the IC50 [1] was over 10000 nM.

GGFLRRIRPKLK-NH2 [Dynorphin A 2-13-NH2] gave an IC50 [1] of over 10000 nM.

For YGGFMRRV-NH2 [Adrenorphin], the “Supplementary Table 4: EC50 of β-arrestin-1 recruitment to ACKR3, U87 cells” value [4] was 109 nM, the “Supplementary Table 4: EC50 of β-arrestin-1 recruitment to MOR, U87 cells” value [5] was 101 nM and the “Supplementary Table 4: EC50 of β-arrestin-1 recruitment to DOR, U87 cells” value [6] was 323 nM. The “Supplementary Table 4: EC50 of β-arrestin-1 recruitment to KOR, U87 cells” value [7] was 65.6 nM, the “Supplementary Table 9: EC50 … CHO cells” value [3] was 22.5 nM and the “Supplementary Table 9: EC50 … HEK cells” value [3] was 72.6 nM. For the same binder, the “Supplementary Table 9: EC50 … U87 cells” value [3] was 81.5 nM and the IC50 [1] was 41.2 nM.

With YGGFLRRQFKVVT [Dynorphin B] the “Supplementary Table 9: EC50 … CHO cells” value [3] was about 1000 nM, the “Supplementary Table 9: EC50 … HEK cells” value [3] was 673 nM and the “Supplementary Table 9: EC50 … U87 cells” value [3] was 908 nM. For the same binder, the IC50 [1] was about 1000 nM.

FGGFMRRK-NH2 (designed binder) was tested, and the “β-arrestin-1 recruitment (NanoBiT, U87 cells): EC50” value [8] was 0.61 nM.

With YGGFLRRIRPKLKWDNQ [Dynorphin A] the “Supplementary Table 9: EC50 … HEK cells” value [3] was 110 nM, the “Supplementary Table 9: EC50 … U87 cells” value [3] was 97.6 nM and the IC50 [1] was 85.3 nM.

YGGFMRRVGRPEWWMDYQKRYG [BAM22] was tested, and the “Supplementary Table 9: EC50 … CHO cells” value [3] was 12.5 nM, the “Supplementary Table 9: EC50 … HEK cells” value [3] was 23.2 nM and the “Supplementary Table 9: EC50 … U87 cells” value [3] was 22.9 nM. It also gave an IC50 [1] of 31.3 nM.

With FGGFTGARKSARKLANQ [Nociceptin] the “Supplementary Table 9: EC50 … CHO cells” value [3] was about 10000 nM and the “Supplementary Table 9: EC50 … U87 cells” value [3] was over 10000 nM.

For FGGFMRRK(Cy5) [LIH383-Cy5], the EC50 [9] was 6.65 nM.

With FGGFTGARKSARK-NH2 (also: ψ(CH2-NH) bond between Phe1 and Gly2) [[Phe1Ψ(CH2-NH)-gly2]nociceptin-(1-13)-NH2] the “Supplementary Table 9: EC50 … CHO cells” value [3] was about 5000 nM, the “Supplementary Table 9: EC50 … HEK cells” value [3] was 3760 nM and the “Supplementary Table 9: EC50 … U87 cells” value [3] was 4340 nM. The IC50 [1] was over 10000 nM.
